Test [1] addresses biotinylated hBLyS-ECD (human) (UniProt Q9Y275). Description: ELISA, coated antibody; biotinylated hBLyS-ECD 0.1 ng/mL.
The target is the same in test [2]. Description: ELISA, coated antibody; biotinylated hBLyS-ECD 0.5 ng/mL.
For test [3] the target is unchanged. Description: ELISA, coated antibody; biotinylated hBLyS-ECD 0.02 ng/mL.
The target is the same in test [4]. Description: ELISA, coated antibody; biotinylated hBLyS-ECD 0.004 ng/mL.
The target is the same in test [5]. Put plainly: ELISA, coated antibody; biotinylated hBLyS-ECD 0.0008 ng/mL.
Test [6] shares this target. Put plainly: ELISA, coated antibody; biotinylated hBLyS-ECD 0.00016 ng/mL.
For test [7] the target is unchanged. Description: ELISA, coated antibody; biotinylated hBLyS-ECD 0.000006 ng/mL.
Test [8] has the same target. Description: ELISA, coated antibody; biotinylated hBLyS-ECD 0.000032 ng/mL.
Test [9] has as its target T1, biotinylated hBLyS-ECD (human, UniProt Q9Y275 134-285, biotinylated with Biotin-X-X-NHS (molar ratio 7:1), sites not stated).
T1 construct: The hBLyS-ECD of Embodiment 1 after biotinylation (Embodiment 2); also called biotinylated immunogen; BLyS protein; not shown: His tag of the pCPC vector
Description: ELISA: biotinylated hBLyS-ECD captured on streptavidin, antibody titrated, HRP secondary antibody.

The target of test [10] is T1, biotinylated hBLyS-ECD. Described as above. This is another data set of the same source.
Test [11] addresses T1, biotinylated hBLyS-ECD. Put plainly: receptor-ligand blocking ELISA: BAFF R coated, biotinylated hBLyS-ECD added with titrated antibody, HRP-avidin; blocked partner: BAFF R.
The target of test [12] is T1, biotinylated hBLyS-ECD. Put plainly: ELISA, biotinylated hBLyS-ECD captured on streptavidin; antibody 13.3 nM. The protocol: (§1) Streptavidin was first diluted to a final concentration of 1.0 μg/mL with PBS, and then 50 μL of diluted streptavidin per well was aliquoted into 96-well ELISA plate, which was subsequently sealed with plastic film and incubated at 4° C. overnight. On the next day the plate was washed four times with the plate washing buffer [PBS buffer containing 0.05% (v/v) Tween20] and added with the blocking solution [PBS buffer containing 0.05% (v/v) Tween20 and 1% (w/w) BSA] and blocked for 2 hours at 37° C. The blocking solution was removed, the biotinylated hBLyS-ECD prepared in Embodiment 2 was diluted with PBS to a final concentration of 50 ng/mL and then aliquoted into the 96-well ELISA plate at 50 μL per well and incubated for 1 hour at 37° C. After rinsing the plate four times with the plate washing buffer [PBS buffer containing 0.05% (v/v) Tween20], 100 μl of the purified lead antibody harvested in Embodiment 1 and 2 was pipetted into each well. After incubation for 1 hour at 37° C., the plate was rinsed four times with the plate washing buffer [PBS buffer containing 0.05% (v/v) Tween20]. HRP-labeled (horseradish peroxidase) secondary antibody (purchased from Sigma) was added in and incubated at 37° C. for 1 hour. The plate was then rinsed four times with the plate washing buffer [PBS buffer containing 0.05% (v/v) Tween20]. 100 μL of TMB substrate was aliquoted into each well and after incubation for 5 minutes at room temperature, 100 μL of stop solution (1.0 N HCl) was aliquoted into each well. A₄₅₀ₙₘ values were read via an ELISA plate reader (SpectraMax M5e purchased from Molecular Devices) and the results were shown in FIGS. 5A-5B and Table 10.

In test [13] the target is T1, biotinylated hBLyS-ECD. Put plainly: ELISA, biotinylated hBLyS-ECD captured on streptavidin; antibody 2.67 nM. The protocol: as §1
The target in test [14] is T1, biotinylated hBLyS-ECD. Put plainly: ELISA, biotinylated hBLyS-ECD captured on streptavidin; antibody 66.7 nM. As for the experimental part: as §1
For test [15], the target named is T1, biotinylated hBLyS-ECD. Description: ELISA, biotinylated hBLyS-ECD captured on streptavidin; antibody 0.107 nM. The protocol:
as §1

Test [16] addresses T1, biotinylated hBLyS-ECD. Description: ELISA, biotinylated hBLyS-ECD captured on streptavidin; antibody 0.534 nM. As for the experimental part: as §1
Test [17] addresses T1, biotinylated hBLyS-ECD. Put plainly: ELISA, biotinylated hBLyS-ECD captured on streptavidin; antibody 0.0213 nM. As for the experimental part: as §1
Test [18] concerns the target T1, biotinylated hBLyS-ECD. Put plainly: ELISA, biotinylated hBLyS-ECD captured on streptavidin; antibody 0.00427 nM. As for the experimental part:
as §1

The target of test [19] is T1, biotinylated hBLyS-ECD. Put plainly: ELISA, biotinylated hBLyS-ECD captured on streptavidin; antibody 0 nM (blank). The protocol: as §1
Test [20] deals with T2, human BLyS (full length, arginine 132 mutated to histidine) on CHO-K1 cells (human, UniProt Q9Y275 1-285).
T2 construct: also called hBLyS; CHO-K1 hBLyS
T2 sequence (Q9Y275 other isoform, or with tags, fused parts or gaps limits assumed, change not shown): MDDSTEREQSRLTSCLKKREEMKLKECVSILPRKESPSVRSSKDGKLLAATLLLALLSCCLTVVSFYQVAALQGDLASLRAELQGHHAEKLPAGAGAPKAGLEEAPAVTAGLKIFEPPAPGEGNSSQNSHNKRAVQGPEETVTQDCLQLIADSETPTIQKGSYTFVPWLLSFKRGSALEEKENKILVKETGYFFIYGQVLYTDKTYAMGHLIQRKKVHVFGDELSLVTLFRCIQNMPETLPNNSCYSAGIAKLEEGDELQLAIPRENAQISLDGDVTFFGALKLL
Description: flow cytometry (FACS) on CHO-K1 hBLyS cells, Alexa 488 secondary antibody. The protocol:
(§2) The medium was aspirated completely, and the cells were rinsed once with PBS buffer (purchased from Invitrogen) and then treated with cell dispersion solution (TrypLE™ Express Enzyme, purchased from Life technology) and collected. The detailed steps are as follows: the cells were rinsed once with PBS buffer, after counting, the cells were diluted to 2×10⁶ cells/ml with PBS buffer, blocked with 2% (w/w) fetal bovine serum and incubated on ice for 30 minutes. 200 μL of which per well was aliquoted into a 96-well FACS plate and centrifuged at 2000 rpm at 4° C., then each 100 μL of the lead antibodies obtained from Embodiment 1 and 2 were aliquoted into each well and incubated on ice for 1 hour. […] After centrifuged and rinsed 3 times with FACS buffer, cells were suspended with 200 μL of FACS buffer and the results were detected and analyzed by FACS (FACS Calibur, purchased from BD). It was shown in Tables 12-13 that the lead antibody could bind to human BLyS protein on the cell surface and the lead antibody could cross-react with cynomolgus BLyS. The data in the table is MFI, the average fluorescence intensity of the cell population.

In test [21] the target is T3, cynomolgus BLyS (full length, arginine 132 mutated to histidine) on CHO-K1 cells (cynomolgus, UniProt Q9Y275 1-285 (human entry)).
T3 construct: also called cyno BLyS; CHO-K1 cynoBLyS
T3 chain: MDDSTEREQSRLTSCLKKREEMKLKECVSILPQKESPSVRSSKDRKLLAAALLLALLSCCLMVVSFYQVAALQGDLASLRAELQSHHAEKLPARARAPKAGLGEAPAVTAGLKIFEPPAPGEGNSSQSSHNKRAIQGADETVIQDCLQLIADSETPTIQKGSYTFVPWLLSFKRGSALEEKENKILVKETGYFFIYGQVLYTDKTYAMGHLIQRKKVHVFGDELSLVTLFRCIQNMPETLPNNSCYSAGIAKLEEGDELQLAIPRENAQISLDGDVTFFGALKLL
Description: flow cytometry (FACS) on CHO-K1 cynoBLyS cells, Alexa 488 secondary antibody. The protocol:
as §2

Test [22] has as its target T1, biotinylated hBLyS-ECD. Description: ELISA: biotinylated hBLyS-ECD captured on streptavidin, antibody titrated, HRP secondary antibody [label printed at the top of D00004]. The protocol: as §1

This note sets out measurements from patent publication US20210347873A1 (SHANGHAI PHARMAEXPLORER, published 2021).

As for BLyS antibody (purchased from GSK), the OD450 nm in [1] amounted to 3.36; in test [2], 3.39; in test [3] it was 3.24; in test [4] it was 3.14; in test [5], 2.01; in [6], 0.54. Moreover, the OD450 nm in test [7] was determined as 0.08; in test [8], 0.19.

B1: c97A3C2H4 (antibody, human IgG1, V domains shown)
VH: EVKLVESGGGLVQPGGSLKLSCAASGFTFSTYTMSWVRQTPEKRLEWVAYISYGGGSTSYPDTVKGRFTISRDNAKNTLYLQMSSLKSEDTAIYYCTRHVTVVENSMDYWGQGTSVTVSS
VL: DILLTQSPDILSVSPGERVSFSCRASQSIGTSIHWYQQRTNGSPRLLIKYVSESFSGTPSRFSGSGSGTAFTLTINSVESEDIADYYCQQTHSWPWTFGGGTKLEIK
notes: also called BLyS chimeric antibody
B1: the figures for the “EC50 (read off the curve)” value in the test with biotinylated hBLyS-ECD [9] and with biotinylated hBLyS-ECD [10] were roughly 0.05 nM and roughly 0.1 nM, respectively. Further, the “IC50 (read off the curve)” value with biotinylated hBLyS-ECD [11] is roughly 2 nM.

B2: c111D10D6G3 (antibody, human IgG1, V domains shown)
VH: QVQLQQPGAELVKPGASVKMSCKASGYTFTRHWITWVKQRPGQGLEWIGDIFPGSGSINYNEKFKSEATLTVEKSSSTAYMQLSSLTSEDSAVYYCARGDVDVWGTGTTVTVSS
VL: DIQMTQSPSSLSASLGERVSLTCRASQEIRGYLSWLQQKPNGTIKRLIYAASTLDSGVPKRFSATRSGSDFSLTISSLESEDFADYYCLQYASYPFTFGSGTKLEIK
notes: as for B1
Consider B2, for which the concentration giving a half-maximal response (EC50 (read off the curve)) in the test with biotinylated hBLyS-ECD [9] was roughly 0.07 nM. Also, the “IC50 (read off the curve)” value with biotinylated hBLyS-ECD [11] is roughly 0.08 nM.

B3: 8E7D9C7F5 (antibody, V domains shown)
VH: QVQLQQSGVELARPGASVKLSCKASGYTFTSYGISWVKQRTGQALEWIGEIYPRSGNTYYNEKFKGKATLTADKSSSTAYMELRSLTSEDSAVYFCARSGPITTLVATDYGMDYWGQGTSVTVSS
VL: DIVLTQSPASLAVSLGQRATISCRASKSVSTSSYSYMHWYQQKPGQPPKLLIKFASNLESGVPARFSGSGSGTDFTLNIHPVEEEDAATYYCQHSREFPYTFGGGTKLEIK
notes: Mouse hybridoma antibody purified on Protein G
In the case of B3, the OD450 nm with biotinylated hBLyS-ECD [12] stood at 2.56; with biotinylated hBLyS-ECD [13], 2.53; with biotinylated hBLyS-ECD [14] it was 2.72; with biotinylated hBLyS-ECD [15], 0.946; in the test with biotinylated hBLyS-ECD [16], 2.06; in the test with biotinylated hBLyS-ECD [17] it was 0.291. Moreover, the OD450 nm with biotinylated hBLyS-ECD [18] is 0.115; in the test with biotinylated hBLyS-ECD [19], 0.0564. The “EC50 (read off the curve)” value is roughly 0.1 nM in [20], roughly 0.1 nM in [21] and roughly 0.2 nM in the test with biotinylated hBLyS-ECD [22].
